Experimental findings from the nanobody polyreactivity screen of Harvey et al. (2022) are described below.

This series in a line: yeast display, Sf9 membrane polyspecificity reagent, FACS + sequencing; frameworks hold sequencing errors. Put shortly:
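Sorting gates, low and high (top ~1%), were placed on anti-HA fluorescence to track expression and on streptavidin fluorescence to track reagent binding. A clone's polyreactivity label is taken from the gate it came out of. The reagent was 10% biotinylated, detergent-solubilized Sf9 membrane, applied for 1 hour at 4 °C to galactose-induced yeast display cells.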
With “QVQLVESGGGLVQAGGSLRLSCAASGFTFGYYAMGWYRQAPGKERELVATIDRGGGTSYADSVKGRFTISRDNAKNTVYLQMNSLKPEDTAVYYCNRAGYGAKARRYRSYWGQGTQVTVSS”, the “polyreactivity (PSR sort gate)” value is “high polyreactivity”.

With “QVQLVESGGGLVQAGGSLRLSCAASGFTFGYYVMGWYRQEPGKERELVAAITVSGASTYYADSVKGRFTISRDNAKNTVYLQMNSLKPEDTAVYYCAKRGYFPALRQSYYYWGQGTQVTVSS”, the “polyreactivity (PSR sort gate)” value is given as “high polyreactivity”.

For “QVQLVESGGGLVQAGGSLRLSCAASGFTFHDYAMGWYRPAPGKERELVAAITKTGGRTYYADSVKGRFTISRDNAKNTVYLQMNSLKPEVTAVYYCAAKSYWGQGTQVTVSS”, the “polyreactivity (PSR sort gate)” value is “high polyreactivity”.

Regarding “QVQLVESGGGLVQAGGSLRLSCAASGFTFHNNVMGWYRQAPGKERELVATISKSGGSTYYADYVKGRFTISRDNAKNTVYLQMKSLKPEDTAVYYCARRYRDYGRYGYWGQGTQVTVSS”, the “polyreactivity (PSR sort gate)” value was “high polyreactivity”.

Take “QVQLVESGGGLVQAGGSLRLSCAASGFTFHNYAMGLYRQSPGKEREFVAAITRNTASTYYADSVKGRFTISRDNAKITVYLQLNSLKPEDTAVYYCAATDKKHRNAYDSWGQVTQVTVSS”: the “polyreactivity (PSR sort gate)” value is given as “low polyreactivity”.

As to “QVQLVESGGGLVQAGGSLRLSCAASGFTFHNYAMGWYRQAPGKEREFVAAITRNTASTYYADSVKGRFTISRDNAKNTVYLQMNSLKPEDTAVYYCAATDKKHRTAYDSWGQGTQVTVSS”, the “polyreactivity (PSR sort gate)” value is reported as “low polyreactivity”.

With “QVQLVESGGGLVQAGGSLRLSCAASGFTFHPNAMGWYRPAPGKERELVAAISTRGGSTAYADSVKGRFTISRDNAKNTVYLLMNSLKPEDTAVYYCAARTSSTKYYYWGQGTQVTVSS”, the “polyreactivity (PSR sort gate)” value is “high polyreactivity”.

With “QVQLVESGGGLVQAGGSLRLSCAASGFTFHRYDMVWYRQAPGKERELVAGITRRSGSTFYADSVKGRFTISRDNAKNTVYLQMNSLKPEDTAVYYCAATVPGMHWIYDYWGQGTQVTVSS”, the “polyreactivity (PSR sort gate)” value is “high polyreactivity”.

As to “QVQLVESGGGLVQAGGSLRLSCAASGFTFHSYAMGLYRQAPGKERELVAAISPGATTYYADSVKGRFTISRENANNTVYFKLNSLKPEDTAVYYFAASYQRVRDATVYTIYDYWGQGTQVTVSS”, the “polyreactivity (PSR sort gate)” value was “high polyreactivity”.

Regarding “QVQLVESGGGLVQAGGSLRLSCAASGFTFHYYAMGWYRQAPGKERELVAAISSSGGNTYYADSVKGRFTISRDNAKNTVYLQMNSLKPEDTEVYYCNAYSFFLGGYDYWGQGTQVTVSS”, the “polyreactivity (PSR sort gate)” value is on record as “high polyreactivity”.

“QVQLVESGGGLVQAGGSLRLSCAASGFTFINYAMGWYRQAPGKERELVAAISRRGGSTYYADSVKGRFTISRDNAKNTVYLQMNSLKPEDTAVYYCAARGYSYNYDYWGQGTQVTVSS”: the “polyreactivity (PSR sort gate)” value is on record as “high polyreactivity”.

In the case of “QVQLVESGGGLVQAGGSLRLSCAASGFTFIPYAMGWYRQAPGKERELVAAISRKGGRTYYADSVKGRFTISRDNAKNTVYLQMNSLKPEDTAVYYCAVSQYRGIYRKYDYWGQGTQVTVSS”, the “polyreactivity (PSR sort gate)” value is on record as “high polyreactivity”.

As for “QVQLVESGGGLVQAGGSLRLSCAASGFTFIQYAMGWYRQAPGKERELVAAISVSGGSTYYADSVKGRFTISRDNAKNTVYLQMNSLKPEDTAVYYCNTVTSGFLSYDYWGQGTQVTVSS”, the “polyreactivity (PSR sort gate)” value is reported as “high polyreactivity”.

“QVQLVESGGGLVQAGGSLRLSCAASGFTFIQYAMGWYRQAPGKERELVAAITRSGGRTYYADSVKGRFTISRDNAKNTVFLQMNSLKPEDTAVYYCNADRTRGYQRYDYWGQGTQETVSS”: the “polyreactivity (PSR sort gate)” value was “high polyreactivity”.

“QVQLVESGGGLVQAGGSLRLSCAASGFTFISNAMGWYRQAPGKERELVAAISSSGGRTFYADSVKGRFTISRDNAKNTDDLQMNSLKPEDTAVYYCNADRSLLYSRKIEYDYWGQGTQVTVSS”: the “polyreactivity (PSR sort gate)” value is listed as “low polyreactivity”.

Take “QVQLVESGGGLVQAGGSLRLSCAASGFTFITNAMGWYRQAPGKERELVASISIGGSTNYADSVKGRFTISRDNAKNTVYLQMNSLKPEDTAVYYCAARVYRRLFLPGRYGRPLGYWGQGTQVTVTS”: the “polyreactivity (PSR sort gate)” value was “high polyreactivity”.

In the case of “QVQLVESGGGLVQAGGSLRLSCAASGFTFIYYAMGWYRQAPGKERELVAAINRGGNTYYADSVKGRFTISRDNAKNTVYLQMNSLKPEDTAVYYCNARSYRRGHYYWGQGTQVTVSS”, the “polyreactivity (PSR sort gate)” value was “high polyreactivity”.

As to “QVQLVESGGGLVQAGGSLRLSCAASGFTFKGYTMGWYRQAPGKERELVAGISRRGGSTYYADSVKGRFTISRDNAKNTVYLQMNSLKPEDTAVYYCAADSQLTKFYYWGQGTQVTVSS”, the “polyreactivity (PSR sort gate)” value is recorded as “high polyreactivity”.

For the sequence “QVQLVESGGGLVQAGGSLRLSCAASGFTFKKNAMGWYRQAPGTERELVAAISRSGGITYYADSVKGRFTISRDNAKNTVYLQMNSLKPEDTAVYYCATQTYRTPGYYYWGEGTQVTVSS”, the “polyreactivity (PSR sort gate)” value is given as “high polyreactivity”.

In the case of “QVQLVESGGGLVQAGGSLRLSCAASGFTFKRYAMGWYRQAPGKERELVAVISSGGSTYYADSVKGRFTISRDNAKNCVYLQMNRLKPEDTAVYYCNAYIGGSSWHTALDYWGQGTQVTVSS”, the “polyreactivity (PSR sort gate)” value is “high polyreactivity”.

“QVQLVESGGGLVQAGGSLRLSCAASGFTFKRYAMGWYRQAPGKESELVAVISSGGSTYYADSVKGRFTISRDNAKNTVYLQMNSLKPEDTAVYYCNAYIGGSSWHTALDYWGQGTQVTVSS”: the “polyreactivity (PSR sort gate)” value was “high polyreactivity”.

Take “QVQLVESGGGLVQAGGSLRLSCAASGFTFKSYAMGWYRQAPGKERELVASISRRGGSTYYADSVKGRFTISRDNAKNTVYLQMNSLKPEDTAVYYCAADKRPPYILDYWGLGTQVTVSS”: the “polyreactivity (PSR sort gate)” value is recorded as “high polyreactivity”.

As to “QVQLVESGGGLVQAGGSLRLSCAASGFTFKSYTMAWYRHAPGKERELVANISRRGGSTYYADSVKGRFTLSRDNAKNTVYLQMNSLKPEDTAVYYCAADAYGFLDTTYRYFYWGQGSQVTVSS”, the “polyreactivity (PSR sort gate)” value is listed as “high polyreactivity”.

Regarding “QVQLVESGGGLVQAGGSLRLSCAASGFTFKVYNAMGWYRQAPGKERELVAAITSSVGGTYYADSVKGRFTISRDNAKNTFYLQMNSLKPEDTAVYYFATDGPISPYWEWPWLLYDYWGQGTQVTVSS”, the “polyreactivity (PSR sort gate)” value is recorded as “low polyreactivity”.

In the case of “QVQLVESGGGLVQAGGSLRLSCAASGFTFKWYAMGWYRQAPGKERELVATITIGGRTNYADSVKGRFTISRDNAKNTVYLQMNSLKPEDTAVYCCATFFVGFRLSDYDYWGQGTQVTVSS”, the “polyreactivity (PSR sort gate)” value is given as “low polyreactivity”.

Turning to “QVQLVESGGGLVQAGGSLRLSCAASGFTFKWYAMGWYRQAPGKERELVATITIGGRTNYADSVKGRFTISRDNAKNTVYLQMNSLKPEDTAVYYCAAESGKIVDFVWVLAYPRLDYWGQGTQVTVSS”, the “polyreactivity (PSR sort gate)” value is given as “low polyreactivity”.

With “QVQLVESGGGLVQAGGSLRLSCAASGFTFKYNAMGWYRHAPGKERELVAAISSSDGTNYADSVKGRFTISRDNAKNTVYLQMNSLKQEDTAVYYCAADYFYLEDYYYWGQGSQVTVSS”, the “polyreactivity (PSR sort gate)” value is “low polyreactivity”.

In the case of “QVQLVESGGGLVQAGGSLRLSCAASGFTFKYYAMGWYRPAPRKERELVADITRSGGSTYYADSVKGRFTISRDNAKNTVYLQMNSLKPEDTAGYYCAVDPVRYPYSYDYWGQGTQVTGSS”, the “polyreactivity (PSR sort gate)” value is “high polyreactivity”.

In the case of “QVQLVESGGGLVQAGGSLRLSCAASGFTFKYYAMGWYRQAPGKERELVARISWSGGSTYYADSVKGRFTISRDNAKNTFYLQMNSLKPEDTAVYYCNTDVGYGFDYWGQGTQVTVSS”, the “polyreactivity (PSR sort gate)” value is listed as “high polyreactivity”.

“QVQLVESGGGLVQAGGSLRLSCAASGFTFKYYAMGWYRQAPGKERELVARISWSGGSTYYADSVKGRFTISRDNAKNTVYLQMNSLKPEDTAVYYCAAKLYSKRTGARMNYWGQGTQVTVSS”: the “polyreactivity (PSR sort gate)” value is listed as “high polyreactivity”.

“QVQLVESGGGLVQAGGSLRLSCAASGFTFLANGMGWYRQAPGKERELVAGITKDGGSTYADSVKGRFTISRDNAKNTVYLQMNSLKPEDTAVYYCAASIFSFSGGLNNGGTRGYWGQGTQVTVSS”: the “polyreactivity (PSR sort gate)” value was “low polyreactivity”.

For “QVQLVESGGGLVQAGGSLRLSCAASGFTFLDYAMGWYRQAPGKERELVAAIDDSGGSTYYADSVKGRFTISRDNAKNTVYLQMNSLKPEDTAVYYCAADWYFFSQLYDYWGQGTQVTVSS”, the “polyreactivity (PSR sort gate)” value is “low polyreactivity”.

With “QVQLVESGGGLVQAGGSLRLSCAASGFTFLKNAMGWYRQAPGKERELVAAITSSGGRTYYADSVKGRFTISRDNAKNTVYLQMNSLKPEDTAVYYCAADHTHGYVLYYNDNYWGQGTQVTVSS”, the “polyreactivity (PSR sort gate)” value is given as “high polyreactivity”.

For “QVQLVESGGGLVQAGGSLRLSCAASGFTFLKNAMGWYRQAPGKERELVAAITSSGGRTYYADSVKGRFTISRDNAKYTVYLQMNSLKPEDTAVYYCNKGPLPGYDYWGQGNQVTVSS”, the “polyreactivity (PSR sort gate)” value is reported as “high polyreactivity”.

In the case of “QVQLVESGGGLVQAGGSLRLSCAASGFTFLKYAMGWYRQAPGKERELVAAISWSGDSTYYADSVKGRFTISRDNAKNTVYLQMNSLKPEDTAVYYCAATYSFYGYYYWGQGTQVTVSS”, the “polyreactivity (PSR sort gate)” value is reported as “high polyreactivity”.

In the case of “QVQLVESGGGLVQAGGSLRLSCAASGFTFLPYVMGWYRQAPGKERELVAAMSSSGGSTYYADSVKGRFTISRDNAKNTVYLQMNSLKPEDTAVYYCAKDIGVRRRDFEDYEYWGQGTQVTVSS”, the “polyreactivity (PSR sort gate)” value was “low polyreactivity”.

On to “QVQLVESGGGLVQAGGSLRLSCAASGFTFLRYAMGWYRQAPGKERELVAAITGGGNTNYADSVKGRFTISRDNAKNTVYLQMNSLKPEDTAVYYCNARRRYWPYREDYWGQGTQVTVSS”, for which the “polyreactivity (PSR sort gate)” value is given as “high polyreactivity”.

On to “QVQLVESGGGLVQAGGSLRLSCAASGFTFLRYAMGWYRQAPGKERELVAAITRGGTTYYADSVKGRFTISRDNAKNTVYLQMNSLKPEDTAVYYCNTLTSYTRYNYWGQGTQVTVSS”, for which the “polyreactivity (PSR sort gate)” value is listed as “high polyreactivity”.

For “QVQLVESGGGLVQAGGSLRLSCAASGFTFNGKSMGLYRQAPGKERELVAAISYSGGSTYYADSVKGRFTISRDYAKNTVYLQMNSLKPEDTSVYYCAADRTAYSVRGYTKVHSGHDYWGQGTQVSVSS”, the “polyreactivity (PSR sort gate)” value is reported as “low polyreactivity”.

For the sequence “QVQLVESGGGLVQAGGSLRLSCAASGFTFNKYAMGWYRQEPGKERELVAAISVSGSRTYYADSVKGRFTISRDNAKNTFYLQMNSLKPEDTAVYYCAATHYSQVSDDYWGQGTQVTVSS”, the “polyreactivity (PSR sort gate)” value is “high polyreactivity”.

Consider “QVQLVESGGGLVQAGGSLRLSCAASGFTFNKYDMGWYRQAPGKERELVAVITWSGGSTYYADSVKGRFTISRDNAKNTVYLQMKSLKPEDTAVYYCNAEAPRYTYGRMDYWGQGTQVTVSS”, for which the “polyreactivity (PSR sort gate)” value is listed as “low polyreactivity”.
